IntAct's records for PubMed 10846174

B1: Apoptosis regulator ced-9 (Caenorhabditis elegans), P41958 (parent)
chain: MTRCTADNSLTNPAYRRRTMATGEMKEFLGIKGTEPTDFGINSDAQDLPSPSRQASTRRMSIGESIDGKINDWEEPRLDIEGFVVDYFTHRIRQNGMEWFGAPGLPCGVQPEHEMMRVMGTIFEKKHAENFETFCEQLLAVPRISFSLYQDVVRTVGNAQTDQCPMSYGRLIGLISFGGFVAAKMMESVELQGQVRNLFVYTSLFIKTRIRNNWKEHNRSWDDFMTLGKQMKEDYERAEAEKVGRRKQNRRWSMIGAGVTAGAIGIVGVVVCGRMMFSLK
partner: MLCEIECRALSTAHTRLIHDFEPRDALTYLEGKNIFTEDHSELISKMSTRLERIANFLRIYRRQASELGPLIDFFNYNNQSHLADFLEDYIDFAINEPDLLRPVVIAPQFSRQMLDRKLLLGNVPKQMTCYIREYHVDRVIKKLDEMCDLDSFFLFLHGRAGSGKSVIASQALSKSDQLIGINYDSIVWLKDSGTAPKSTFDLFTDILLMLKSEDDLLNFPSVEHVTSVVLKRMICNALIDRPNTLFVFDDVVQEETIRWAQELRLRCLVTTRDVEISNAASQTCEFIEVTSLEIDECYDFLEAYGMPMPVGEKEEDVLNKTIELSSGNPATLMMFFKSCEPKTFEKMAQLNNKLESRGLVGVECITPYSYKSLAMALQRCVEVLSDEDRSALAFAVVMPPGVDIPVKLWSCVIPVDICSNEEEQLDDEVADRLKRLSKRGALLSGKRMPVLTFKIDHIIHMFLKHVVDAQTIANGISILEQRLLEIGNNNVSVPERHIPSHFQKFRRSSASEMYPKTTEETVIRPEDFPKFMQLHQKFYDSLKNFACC
B2: Apoptosis regulator ced-9 (Caenorhabditis elegans), P41958 (parent)
chain: B1 chain
partner: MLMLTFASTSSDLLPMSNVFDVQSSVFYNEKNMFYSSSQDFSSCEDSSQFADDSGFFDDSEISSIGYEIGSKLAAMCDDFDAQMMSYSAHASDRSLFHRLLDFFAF

Variants of: B1
Conditions: with ced4_caeel ced-4, P30429

effect of a mutation on the interaction	Variant
with no effect	MTRCTADNSLTNPAYRRRTMATGEMKEFLGIKGTEPTDFGINSDAQDLPSPSRQASTRRMSIGESIDGKINDWEEPRLDIEGFVVDYFTHRIRQNGMEWFGAPGLPCGVQPEHEMMRVMGTIFEKKHAENFETFCEQLLAVPRISFSLYQDVVRTVGNAQTDQCPMSYERLIGLISFGGFVAAKMMESVELQGQVRNLFVYTSLFIKTRIRNNWKEHNRSWDDFMTLGKQMKEDYERAEAEKVGRRKQNRRWSMIGAGVTAGAIGIVGVVVCGRMMFSLK [G169E]

Variants of: B2
Conditions: with egl1_caeel egl-1, O61667

effect of a mutation on the interaction	Variant
with no effect	MTRCTADNSLTNPAYRRRTMATGEMKEFLGIKGTEPTDFGINSDAQDLPSPSRQASTRRMSIGESIDGKINDWEEPRLDIEGFVVDYFTHRIRQNGMEWFGAPGLPCGVQPEHEMMRVMGTIFEKKHAENFETFCEQLLAVPRISFSLYQDVVRTVGNAQTDQCPMSYERLIGLISFGGFVAAKMMESVELQGQVRNLFVYTSLFIKTRIRNNWKEHNRSWDDFMTLGKQMKEDYERAEAEKVGRRKQNRRWSMIGAGVTAGAIGIVGVVVCGRMMFSLK [G169E]

Variants of: B2
Conditions: with egl1_caeel egl-1, O61667
Remark: another data set of the same source

effect of a mutation on the interaction	Variant
decreasing interaction strength	MTRCTADNSLTNPAYRRRTMATGEMKEFLGIKGTEPTDFGINSDAQDLPSPSRQASTRRMSIGESIDGKINDWEEPRLDIEGFVVDYFTHRIRQNGMEWFGAPGLPCGVQPEHEMMRVMGTIFEKKHAENFETFCEQLLAVPRISFSLYQDVVRTVGNAQTDQCPMSYERLIGLISFGGFVAAKMMESVELQGQVRNLFVYTSLFIKTRIRNNWKEHNRSWDDFMTLGKQMKEDYERAEAEKVGRRKQNRRWSMIGAGVTAGAIGIVGVVVCGRMMFSLK [G169E]
